Consider one molecule from patent publication US9119806B2, “Culturing circular ssDNA viruses for the production of vaccines” (priority 2007, dated 2015).

Holding throughout (format): cell-based, Porcine circovirus 2
For experiment [1], the system named is PCV2 capsids on 3D4/31 cells. In words: Attachment of PCV2 capsids (virion-like particles) on 3D4/31 cells. The following applies: 4° C., 0-60 minutes. The protocol: The attachment of PCV2 capsids onto untreated 3D4/31 cells and 3D4/31 cells pre-treated with IFN-gamma was studied as described by Misinzo et al. (J Gen Virol. conditionally accepted for publication). Briefly, treated and untreated 3D4/31 cells were chilled on ice and washed before PCV2 capsids were added and allowed to attach for 0, 1, 5, 10, 15, 30 and 60 minutes at 4° C. Unbound PCV2 capsids were washed-off and cells were fixed with 3% (w/v) paraformaldehyde in phosphate-buffered saline with calcium and magnesium (PBS+) at room temperature for 10 minutes. In order to stain the PCV2 capsids, cells were incubated with biotin-conjugated anti-PCV2 swine polyclonal antibodies and streptavidin-FITC (Molecular Probes, Leiden, The Netherlands) for 1 hour at room temperature. The slides were mounted and analysed by acquisition of digital images of stained PCV2 capsids using a Leica TCS SP2 laser scanning spectral confocal system (Leica Microsystems GmbH, Heidelberg, Germany) linked to a Leica DM/IRB inverted microscope (Leica Microsystems GmbH, Wetzlar, Germany). Successive images from the apex to the base of a single cell were taken and merged. The number of PCV2 capsids attached per cell was counted for ten cells at each time point to establish their binding kinetics into 3D4/31 cells.

In experiment [2] the test system is PCV2-infected 3D4/31 cells. Nature of the experiment: Number of PCV2-infected 3D4/31 cells (IPMA) after cytokine treatment. The following applies: for increase in PCV2-positive cells: 3D4/31. From the text: In order to use cells, more related to the target cells in vivo, the monocytic cell line 3D4/31 was used to confirm the effect of the different cytokines on the number of PCV2-infected cells. The 3D4/31 cell line is a porcine monomyeloid cell lines that was established following transfection of primary porcine alveolar macrophage cultures with plasmid pSV3neo, carrying genes for neomycin resistance and SV40 large T antigen. (Weingartl et al. (2002) J Virol Methods. 10, 203-216). These cells were maintained in a 1:1 mixture of RPMI-1640 (Invitrogen) and DMEM (Invitrogen) supplemented with 10% fetal bovine serum, 0.3 mg/ml glutamine, 100 U/ml penicillin, 0.1 mg/ml streptomycin, 0.1 mg/ml kanamycin and 1% non-essential amino acids 100× (GIBCO BRL®, Grand Island, USA). These experiments were also performed in 96-well plates containing the same number of cells. Furthermore, to monitor the effect of IFN-gamma on the entry of PCV2 virion-like particles was determined, 3D4/31 cells were seeded at 2×10^5 cells/ml of medium onto microscopic slides mounted with an 8 well cell culture silicone chamber (Vivascience AG, Hanover). In all inoculations, the same PCV2-strain (Stoon-1010) was used at a multiplicity of infection of 0.01. The virus was diluted in MEM and inoculated on the cell cultures by incubating cells and virus for 1 hour at 37° C. After 1 hour, the inoculum was removed, the cultures were washed twice with MEM and new culture medium was added.
The influence of the cytokines on the infection of PCV2 in PK-15 and 3D4/31 cells was determined by adding two-fold-dilution series of the cytokines to the medium of the cells before, during or after the inoculation. IL-1, IL-6, […] and IFN-alpha were used in concentrations ranging from 0.25-250 Units/ml (U/ml), IFN-gamma was used in concentrations ranging from 0.25-1000 U/ml and IL-10 was used in concentrations from 0.13-125 U/ml. Cell cultures were either pre-treated with the cytokines for 24 hours before inoculation, treated during the inoculation or the cytokines were added in the medium after the inoculation. After 36 hours of incubation at 37° C. in an environment supplemented with 5% CO2, the cells were fixed by drying and frozen at −20° C. The plates were stained with an immuno-peroxydase monolayer assay (IPMA) as described by Sanchez et al. (2003, Vet Microbiol 95, 15-25) and the number of PCV2-positive cells was counted by light microscopy. In each plate a control was inoculated with an equal dose of mock-treated PCV2 (treated with MEM without cytokines). The number of infected cells in this well was used as the reference and all results were expressed as a ratio to this reference.

Experiment [3] has as its system PCV2 proteins in PK-15 cells. Nature of the experiment: Expression kinetics of PCV2 proteins (capsid, REP) in PK-15 cells, immunofluorescence. The procedure:
To determine the timing and localisation of PCV2 proteins expression (Capsid protein and REP), PK-15 cells were seeded on glass cover slips and inoculated with PCV2. After inoculation, culture medium was added with or without 500 U/ml IFN-gamma. At 0, 12, 24, 36, 48 and 72 hpi the cells were fixed in methanol at −20° C. Afterwards, a triple immunofluorescence staining was performed to visualize both viral proteins and the cell nucleus. PCV2 capsid protein was detected using purified biotinylated porcine polyclonal anti-PCV2 immunoglobulins which only react with PCV2 capsid proteins. Bound porcine immunoglobulins were visualized with streptavidin conjugated Texas Red (molecular probes, Leiden, The Netherlands). In a second step, the REP protein was detected with a specific mouse monoclonal antibody (F210) visualized with goat-anti-mouse FITC (molecular probes, Leiden, The Netherlands). In a final step, the nuclei of the cells were visualized with Hoechst 33342 (Molecular Probes, Oreg., USA) at a concentration of 0.1 mg/ml. The number of cells with capsid and/or REP protein was counted and the localisation of viral antigens was monitored by fluorescence microscopy.

For experiment [4], the system named is PCV2 capsids in 3D4/31 cells. In words: Entry (internalization) of PCV2 recombinant capsids in 3D4/31 cells. The conditions noted are these: 3D4/31 cells treated with IFN-gamma. The procedure:
To study the internalization of recombinant capsids on 3D4/31, cells were washed with RPMI-1640 at 37° C. and then incubated with capsids at 37° C. for 15 minutes followed by washing of unbound capsids. Cells were then fixed with a 3% solution of paraformaldehyde (rPBS) for 10 minutes at 30, 60 and 120 minutes since the addition of capsids into the cells, washed with PBS, and permeabilized in a 0.1% Triton X-100 solution in rPBS. Capsids were stained by incubating the calls with a biotin-conjugated anti-PCV2 swine polyclonal antibody followed by streptavidin-FITC (Molecular Probes, Eugene, Oreg.).

The subject of experiment [5] is PCV2 in PK-15 cells. Nature of the experiment: Progeny PCV2 virus production in PK-15 cells with IFN-gamma. The protocol:
The influence of IFN-gamma on the production of progeny virus in PCV2-infected cells was determined by inoculating PK-15 cells with the standard PCV2-stock. After the inoculation, culture medium was added supplemented with IFN-gamma (500 U/ml). At 0, 12, 24, 36, 48 and 72 hours post inoculation (hpi) the supernatant was collected. Subsequently the culture was washed once with 1 ml PBS. Both the supernatant and the washing fluid were centrifuged for 10 minutes at 15,000×g to pellet cells and debris. The centrifuged supernatant and washing fluids were combined and considered to contain the extracellular virus. Both pellets and cell cultures were freeze-thawed tree times and considered to contain the intracellular virus. Intra- and extracellular virus titres were determined by titration on PCV-negative PK-15 cells as described previously.

Setting [6] is: treated (500 U/ml) and non-treated PK-15 cells.

B1: IFN-gamma: Porcine interferon gamma purchased from R&D systems (protein, UniProt P17803 24-166, looked up)
Interferon gamma: QAPFFKEITILKDYFNASTSDVPNGGPLFLEILKNWKEESDKKIIQSQIVSFYFKFFEIFKDNQAIQRSMDVIKQDMFQRFLNGSSGKLNDFEKLIKIPVDNLQIQRKAISELIKVMNDLSPRSNLRKRKRSQTMFQGQRASK
B1: the “number of attached virion-like particles per cell and binding kinetics (in words)” value in experiment [1] was “No differences were observed”. In addition, the “increase in PCV2-positive cells” value in experiment [2] (treated after inoculation) is listed as 523±115%; in experiment [2] (treated before inoculation), 806±88%; in experiment [2] (treated during inoculation), 214±16%. In addition, the “change in the number of PCV2-positive cells (in words)” value in experiment [2] (3D4/31 cells, any concentration, before, during or after inoculation) is recorded as “dose-dependent increase”. Moreover, the “influence on sequence of events of PCV2 protein expression (in words)” value in experiment [3] (PK-15, 500 U/ml after inoculation) is recorded as “did not influence”. The “first nuclear localisation of both proteins” value in experiment [3] (both cultures) was found to be 24 hpi. Besides, the “first detection of REP protein” value in experiment [3] (setting [6]) worked out at 24 hpi. In experiment [3] (setting [6]), the “first detection of capsid protein” value was determined as 12 hpi. For the same molecule, the “number of internalized virions (in words)” value in experiment [4] is recorded as “significant increase”. Also, the “total PCV2 production higher compared to non-treated cells” value in experiment [5] (500 U/ml after inoculation, 72 hpi) stood at 1.3 log10 TCID50. Further, the “extracellular and intracellular virus production (in words)” value in experiment [5] (500 U/ml, compared to non-treated control cells) is “increased”.
